Sequences and labels used below:
B2: His6-tagged Dmc1 (natural protein, Saccharomyces cerevisiae, UniProt P25453 1-334, looked up)
chain: MSVTGTEIDSDTAKNILSVDELQNYGINASDLQKLKSGGIYTVNTVLSTTRRHLCKIKGLSEVKVEKIKEAAGKIIQVGFIPATVQLDIRQRVYSLSTGSKQLDSILGGGIMTMSITEVFGEFRCGKTQMSHTLCVTTQLPREMGGGEGKVAYIDTEGTFRPERIKQIAEGYELDPESCLANVSYARALNSEHQMELVEQLGEELSSGDYRLIVVDSIMANFRVDYCGRGELSERQQKLNQHLFKLNRLAEEFNVAVFLTNQVQSDPGASALFASADGRKPIGGHVLAHASATRILLRKGRGDERVAKLQDSPDMPEKECVYVIGEKGITDSSD

For the experiment “His6-tagged Dmc1”, the target named is B2. Kind of experiment: co-IP.
In experiment [1] the target is Replication protein A (RPA) (Saccharomyces cerevisiae, UniProt P22336 1-621; P26754 1-273; P26755 1-122). Briefly: pull-down.
Sequence of Replication protein A (RPA) (P22336 whole entry, chain 1 of 3): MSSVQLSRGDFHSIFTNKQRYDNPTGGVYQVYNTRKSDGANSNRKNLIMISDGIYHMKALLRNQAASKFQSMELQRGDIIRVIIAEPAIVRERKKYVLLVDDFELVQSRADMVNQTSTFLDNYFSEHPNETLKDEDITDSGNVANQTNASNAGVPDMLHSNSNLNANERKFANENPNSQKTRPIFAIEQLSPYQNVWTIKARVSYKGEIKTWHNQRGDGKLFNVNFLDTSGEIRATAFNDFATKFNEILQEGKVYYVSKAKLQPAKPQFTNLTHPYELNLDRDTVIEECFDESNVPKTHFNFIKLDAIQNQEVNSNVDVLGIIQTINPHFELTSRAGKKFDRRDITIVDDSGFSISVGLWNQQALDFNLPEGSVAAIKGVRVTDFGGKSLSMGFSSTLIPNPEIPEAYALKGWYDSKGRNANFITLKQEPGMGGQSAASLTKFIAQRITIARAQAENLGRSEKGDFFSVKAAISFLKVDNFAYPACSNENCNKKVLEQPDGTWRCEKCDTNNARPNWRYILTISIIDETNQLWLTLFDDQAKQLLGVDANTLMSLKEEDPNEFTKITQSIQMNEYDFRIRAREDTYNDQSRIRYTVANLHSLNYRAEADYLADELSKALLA
Sequence of Replication protein A (RPA) (P26754 whole entry, chain 2 of 3): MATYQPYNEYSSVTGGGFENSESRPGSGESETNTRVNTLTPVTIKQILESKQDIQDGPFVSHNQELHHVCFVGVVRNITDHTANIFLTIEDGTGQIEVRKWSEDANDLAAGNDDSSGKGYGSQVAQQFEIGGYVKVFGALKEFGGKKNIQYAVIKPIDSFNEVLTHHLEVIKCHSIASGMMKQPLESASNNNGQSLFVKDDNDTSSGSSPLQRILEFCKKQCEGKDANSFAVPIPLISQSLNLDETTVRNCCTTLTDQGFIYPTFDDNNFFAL
Sequence of Replication protein A (RPA) (P26755 whole entry, chain 3 of 3): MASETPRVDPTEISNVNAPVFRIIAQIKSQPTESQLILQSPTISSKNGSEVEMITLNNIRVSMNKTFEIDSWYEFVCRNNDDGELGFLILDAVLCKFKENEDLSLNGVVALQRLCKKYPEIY

B1: His6-tagged Mei5-Sae3 heterodimer (complex, Saccharomyces cerevisiae)
chain 1: MHNQEEWLDKDKTLVNEEENTCINHSYTKKDTNNYRVGKSGIKDLKKPTNQKEIAIKNRELTKQLTLLRQENNHLQQACKILSENKIIENRKSIEKWRTICEMELSFILNSTLIKINRMGGYKDFLEKEMEAKKRRLEYQIDNGMEDQICEIKESDDFRQLSEVEKQEWESQMNEQLKELEKKKIAELEKLNKVLHDSEGKDFGMAELCTRLKLDYSLIFPQ
chain 2: MNYLETQLNKKQKQIQEYESMNGNLIKMFEQLSKEKKNDETPKKISSTYIKELKEYNELRDAGLRLAQIIADEKQCKIKDVFEEIGYSMKD
Take B1: the binding result (with His6-tagged Dmc1; in experiment [1]) was “binds” in each case.

Regarding B2, in experiment [1], the binding result is listed as “binds”.

Source of the values: paper doi:10.1101/356592 (bioRxiv, 2018).
